± gives the standard deviation of the averaged measurements.
Assay: total protein half-life in vivo (active degradation + dilution); higher = more stable protein
[1] = E. coli NCM3722 delta-clpP delta-lon delta-hslV, growth: N-lim chemostat, doubling time 6 h
[2] = E. coli NCM3722 delta-clpP, growth: N-lim chemostat, doubling time 6 h
[3] = E. coli NCM3722 delta-hslV, growth: N-lim chemostat, doubling time 6 h
[4] = E. coli NCM3722 delta-lon, growth: N-lim chemostat, doubling time 6 h
[5] = E. coli NCM3722 delta-smpB, growth: N-lim chemostat, doubling time 6 h
[6] = wild type E. coli NCM3722, growth: C-lim chemostat, doubling time 3 h
[7] = wild type E. coli NCM3722, growth: C-lim chemostat, doubling time 6 h
[8] = wild type E. coli NCM3722, growth: C-lim chemostat, doubling time 12 h
[9] = wild type E. coli NCM3722, growth: N-lim chemostat, doubling time 6 h
[10] = wild type E. coli NCM3722, growth: N-lim chemostat, doubling time 12 h
[11] = wild type E. coli NCM3722, growth: P-lim chemostat, doubling time 6 h
[12] = wild type E. coli NCM3722, growth: P-lim chemostat, doubling time 12 h

Sequence	total protein half-life in vivo [1]	total protein half-life in vivo [2]	total protein half-life in vivo [3]	total protein half-life in vivo [4]	total protein half-life in vivo [5]	total protein half-life in vivo [6]	total protein half-life in vivo [7]	total protein half-life in vivo [8]	total protein half-life in vivo [9]	total protein half-life in vivo [10]	total protein half-life in vivo [11]	total protein half-life in vivo [12]
MSVIKMTDLDLAGKRVFIRADLNVPVKDGKVTSDARIRASLPTIELALKQGAKVMVTSHLGRPTEGEYNEEFSLLPVVNYLKDKLSNPVRLVKDYLDGVDVAEGELVVLENVRFNKGEKKDDETLSKKYAALCDVFVMDAFGTAHRAQASTHGIGKFADVACAGPLLAAELDALGKALKEPARPMVAIVGGSKVSTKLTVLDSLSKIADQLIVGGGIANTFIAAQGHDVGKSLYEADLVDEAKRLLTTCNIPVPSDVRVATEFSETAPATLKSVNDVKADEQILDIGDASAQELAEILKNAKTILWNGPVGVFEFPNFRKGTEIVANAIADSEAFSIAGGGDTLAAIDLFGIADKISYISTGGGAFLEFVEGKVLPAVAMLEERAKK [P0A799]	5.45 ± 0.47 h	5.27 ± 0.49 h	4.91 ± 0.11 h	5.68 ± 0.45 h	4.66 ± 0.14 h	3.28 ± 0.049 h	6.24 ± 0.46 h	12.8 ± 0.99 h	4.92 ± 0.11 h	8.6 ± 0.45 h	5.69 ± 0.4 h	12 ± 0.29 h
MSVLQVLHIPDERLRKVAKPVEEVNAEIQRIVDDMFETMYAEEGIGLAATQVDIHQRIIVIDVSENRDERLVLINPELLEKSGETGIEEGCLSIPEQRALVPRAEKVKIRALDRDGKPFELEADGLLAICIQHEMDHLVGKLFMDYLSPLKQQRIRQKVEKLDRLKARA [P0A6K3]	5.89 ± 0.28 h	4.94 ± 1.4 h	3.19 ± 0.11 h	3.686 ± 0.032 h	2.84 ± 0.43 h	2.6 ± 0.4 h	3.936 ± 0.014 h	6.33 ± 0.35 h	3.12 ± 0.3 h	4.58 ± 0.57 h	4.29 h	8.94 ± 0.6 h
MSVPLILTILAGAATFIGAFLGVLGQKPSNRLLAFSLGFAAGIMLLISLMEMLPAALAAEGMSPVLGYGMFIFGLLGYFGLDRMLPHAHPQDLMQKSVQPLPKSIKRTAILLTLGISLHNFPEGIATFVTASSNLELGFGIALAVALHNIPEGLAVAGPVYAATGSKRTAILWAGISGLAEILGGVLAWLILGSMISPVVMAAIMAAVAGIMVALSVDELMPLAKEIDPNNNPSYGVLCGMSVMGFSLVLLQTAGIG [P0A8H3]	1.91 h	1.38 h	1.59 ± 0.2 h	2.14 ± 0.3 h	1.65 ± 0.083 h	0.41 h	0.83 h	–	1.7 h	2.45 h	–	–
MSVPVQHPMYIDGQFVTWRGDAWIDVVNPATEAVISRIPDGQAEDARKAIDAAERAQPEWEALPAIERASWLRKISAGIRERASEISALIVEEGGKIQQLAEVEVAFTADYIDYMAEWARRYEGEIIQSDRPGENILLFKRALGVTTGILPWNFPFFLIARKMAPALLTGNTIVIKPSEFTPNNAIAFAKIVDEIGLPRGVFNLVLGRGETVGQELAGNPKVAMVSMTGSVSAGEKIMATAAKNITKVCLELGGKAPAIVMDDADLELAVKAIVDSRVINSGQVCNCAERVYVQKGIYDQFVNRLGEAMQAVQFGNPAERNDIAMGPLINAAALERVEQKVARAVEEGARVAFGGKAVEGKGYYYPPTLLLDVRQEMSIMHEETFGPVLPVVAFDTLEDAISMANDSDYGLTSSIYTQNLNVAMKAIKGLKFGETYINRENFEAMQGFHAGWRKSGIGGADGKHGLHEYLQTQVVYLQS	4.75 ± 0.26 h	4.93 ± 1 h	3.81 ± 0.14 h	4.56 ± 0.062 h	4.55 ± 0.52 h	3.19 ± 0.26 h	5.86 ± 0.33 h	10.24 ± 0.092 h	4.82 ± 1.6 h	5.01 ± 1.9 h	5.871 ± 0.049 h	11.3 ± 0.13 h
MSVRLVLAKGREKSLLRRHPWVFSGAVARMEGKASLGETIDIVDHQGKWLARGAYSPASQIRARVWTFDPSESIDIAFFSRRLQQAQKWRDWLAQKDGLDSYRLIAGESDGLPGITIDRFGNFLVLQLLSAGAEYQRAALISALQTLYPECSIYDRSDVAVRKKEGMELTQGPVTGELPPALLPIEEHGMKLLVDIQHGHKTGYYLDQRDSRLATRRYVENKRVLNCFSYTGGFAVSALMGGCSQVVSVDTSQEALDIARQNVELNKLDLSKAEFVRDDVFKLLRTYRDRGEKFDVIVMDPPKFVENKSQLMGACRGYKDINMLAIQLLNEGGILLTFSCSGLMTSDLFQKIIADAAIDAGRDVQFIEQFRQAADHPVIATYPEGLYLKGFACRVM	5.39 ± 0.22 h	5.51 ± 0.19 h	5.55 ± 0.16 h	6.51 ± 0.56 h	5.25 ± 0.27 h	3.02 ± 0.1 h	6.57 ± 0.19 h	11.32 ± 0.082 h	6.03 ± 0.6 h	11.3 ± 1.5 h	6.28 ± 1.2 h	13.1 ± 1.7 h
MSVSAFNRRWAAVILEALTRHGVRHICIAPGSRSTPLTLAAAENSAFIHHTHFDERGLGHLALGLAKVSKQPVAVIVTSGTAVANLYPALIEAGLTGEKLILLTADRPPELIDCGANQAIRQPGMFASHPTHSISLPRPTQDIPARWLVSTIDHALGTLHAGGVHINCPFAEPLYGEMDDTGLSWQQRLGDWWQDDKPWLREAPRLESEKQRDWFFWRQKRGVVVAGRMSAEEGKKVALWAQTLGWPLIGDVLSQTGQPLPCADLWLGNAKATSELQQAQIVVQLGSSLTGKRLLQWQASCEPEEYWIVDDIEGRLDPAHHRGRRLIANIADWLELHPAEKRQPWCVEIPRLAEQAMQAVIARRDAFGEAQLAHRICDYLPEQGQLFVGNSLVVRLIDALSQLPAGYPVYSNRGASGIDGLLSTAAGVQRASGKPTLAIVGDLSALYDLNALALLRQVSAPLVLIVVNNNGGQIFSLLPTPQSERERFYLMPQNVHFEHAAAMFELKYHRPQNWQELETAFADAWRTPTTTVIEMVVNDTDGAQTLQQLLAQVSHL	6.1 ± 0.64 h	5.37 ± 0.1 h	5.38 ± 0.24 h	–	5.01 ± 0.12 h	3.27 ± 0.59 h	6.66 ± 0.06 h	12.2 ± 1.8 h	5.89 ± 0.76 h	12.3 ± 1.8 h	6.81 ± 0.65 h	–
